# Experimental data from article PMC6726633, “Different Grp94 components interact transiently with the myocilin olfactomedin domain in vitro to enhance or retard its amyloid aggregation” (Scientific Reports, 2019).
# T1: Myocilin olfactomedin domain, residues 228-504 (human), Q99972
# T1 chain: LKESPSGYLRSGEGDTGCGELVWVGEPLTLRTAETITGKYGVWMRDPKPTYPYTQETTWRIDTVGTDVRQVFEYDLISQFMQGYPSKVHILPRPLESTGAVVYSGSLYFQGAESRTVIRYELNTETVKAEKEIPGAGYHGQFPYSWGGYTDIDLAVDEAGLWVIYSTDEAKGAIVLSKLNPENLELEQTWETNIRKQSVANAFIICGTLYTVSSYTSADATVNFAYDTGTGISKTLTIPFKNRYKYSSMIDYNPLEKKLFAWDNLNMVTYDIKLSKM
# What was measured:
# [1] = molecular target: T1, Myocilin olfactomedin domain, residues …; assay: cross-linking; OLF-only control samples of the BS3(d0/d4) cross-linking experiments, PBS; SDS-PAGE and LC-MS; conditions: remark: other sources report otherwise
# [2] = molecular target: T2, Grp94 N and middle domains, residues 22-594 (human, UniProt P14625 22-594); assay: cross-linking; Grp94N, Grp94NM or Grp94MC:OLF 1:1, OLF 100 μM (dansylated or label-free), PBS, 10 mM BS3(d0/d4) 3 h at 37 °C; SDS-PAGE (Coomassie, dansyl fluorescence), in-gel digestion and LC-MS; conditions: both partners purified
# T2 construct: Grp94, Homo sapiens, residues 22-594 (STOP codon installed after position 594 on the Grp94FL template); Tag removed with TEV protease; also called Grp94NM; NM; source: E. coli BL21(DE3), purified (HisTrap, SEC, TEV cleavage, SEC); not shown: His6, N-terminal, cleaved
# [3] = molecular target: T3, Grp94 N-terminal nucleotide-binding domain (including Pre-N), residues 22-337 (human, UniProt P14625 22-337); assay: co-sedimentation; after the ThT aggregation assay (Grp94 construct 3 μM, OLF 30 μM, PBS, 42 °C, up to 96 h): centrifugation 10 min at 17,000 x g; supernatant, wash and pellet on 12% reducing SDS-PAGE, Coomassie, densitometry; only samples containing OLF gave pellets; conditions: both partners purified
# T3 construct: Grp94, Homo sapiens, residues 22-337 (STOP codon installed after position 337 on the Grp94FL template); Tag removed with TEV protease; also called N domain; source: E. coli BL21(DE3), purified (HisTrap, SEC, TEV cleavage, SEC); not shown: His6, N-terminal, cleaved
# [4] = molecular target: T4, Grp94 Pre-N truncation variant, residues 58-804 (canine) (Canis lupus familiaris, UniProt P41148 58-804); assay: as above; conditions: both partners purified
# T4 construct: C-terminal 6xHis tag is non-cleavable; not shown: His6, C-terminal, kept
# [5] = molecular target: T5, Grp94 Pre-N truncation variant, residues 73-804 (canine) (Canis lupus familiaris, UniProt P41148 73-804); assay: as above; conditions: both partners purified
# T5 construct: C-terminal 6xHis tag is non-cleavable; not shown: His6, C-terminal, kept
# T5 sequence (P41148 73-804, change not shown): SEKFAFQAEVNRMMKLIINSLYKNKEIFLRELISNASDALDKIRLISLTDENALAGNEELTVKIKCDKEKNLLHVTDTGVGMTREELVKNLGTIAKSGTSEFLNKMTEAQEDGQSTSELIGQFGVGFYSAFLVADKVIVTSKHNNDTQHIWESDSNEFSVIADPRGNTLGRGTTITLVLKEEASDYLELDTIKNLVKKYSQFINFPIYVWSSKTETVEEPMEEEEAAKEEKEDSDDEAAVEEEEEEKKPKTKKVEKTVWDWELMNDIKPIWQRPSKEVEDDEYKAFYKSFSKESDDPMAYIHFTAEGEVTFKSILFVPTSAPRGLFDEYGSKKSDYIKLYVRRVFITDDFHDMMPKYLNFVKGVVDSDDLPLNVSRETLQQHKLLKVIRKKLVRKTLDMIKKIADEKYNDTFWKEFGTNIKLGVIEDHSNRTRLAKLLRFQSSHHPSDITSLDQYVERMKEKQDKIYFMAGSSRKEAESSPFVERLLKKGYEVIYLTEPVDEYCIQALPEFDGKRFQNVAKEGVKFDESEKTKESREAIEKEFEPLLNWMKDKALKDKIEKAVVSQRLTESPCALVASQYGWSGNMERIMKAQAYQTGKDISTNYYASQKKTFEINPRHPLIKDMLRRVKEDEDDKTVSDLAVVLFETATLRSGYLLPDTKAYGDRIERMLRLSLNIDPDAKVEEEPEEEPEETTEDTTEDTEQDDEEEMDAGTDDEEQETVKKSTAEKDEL
# T2 sequence (P14625 22-594): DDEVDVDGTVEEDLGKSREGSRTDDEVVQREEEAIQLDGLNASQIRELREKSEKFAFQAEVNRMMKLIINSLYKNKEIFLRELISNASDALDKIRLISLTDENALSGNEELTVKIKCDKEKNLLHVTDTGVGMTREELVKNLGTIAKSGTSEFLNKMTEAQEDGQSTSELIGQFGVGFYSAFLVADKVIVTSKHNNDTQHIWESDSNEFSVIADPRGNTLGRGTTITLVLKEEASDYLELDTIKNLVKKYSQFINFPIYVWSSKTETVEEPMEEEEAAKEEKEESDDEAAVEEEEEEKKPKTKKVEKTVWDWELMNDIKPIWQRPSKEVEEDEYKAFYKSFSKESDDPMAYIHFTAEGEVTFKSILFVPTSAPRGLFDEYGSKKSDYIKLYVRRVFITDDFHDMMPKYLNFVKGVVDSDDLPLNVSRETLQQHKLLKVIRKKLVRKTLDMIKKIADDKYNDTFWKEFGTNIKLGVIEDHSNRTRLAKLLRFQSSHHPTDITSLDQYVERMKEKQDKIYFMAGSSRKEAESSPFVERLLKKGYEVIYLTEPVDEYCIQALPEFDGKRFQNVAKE
# T3 sequence (P14625 22-337): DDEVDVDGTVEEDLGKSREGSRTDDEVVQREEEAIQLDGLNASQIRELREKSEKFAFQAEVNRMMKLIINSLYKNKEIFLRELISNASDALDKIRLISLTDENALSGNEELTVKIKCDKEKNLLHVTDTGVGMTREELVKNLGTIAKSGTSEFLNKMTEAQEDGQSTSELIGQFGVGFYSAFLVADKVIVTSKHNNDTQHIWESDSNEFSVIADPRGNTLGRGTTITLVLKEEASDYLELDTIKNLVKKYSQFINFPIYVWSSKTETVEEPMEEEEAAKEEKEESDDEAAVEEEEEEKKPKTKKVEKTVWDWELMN
# T4 sequence (P41148 58-804, change not shown): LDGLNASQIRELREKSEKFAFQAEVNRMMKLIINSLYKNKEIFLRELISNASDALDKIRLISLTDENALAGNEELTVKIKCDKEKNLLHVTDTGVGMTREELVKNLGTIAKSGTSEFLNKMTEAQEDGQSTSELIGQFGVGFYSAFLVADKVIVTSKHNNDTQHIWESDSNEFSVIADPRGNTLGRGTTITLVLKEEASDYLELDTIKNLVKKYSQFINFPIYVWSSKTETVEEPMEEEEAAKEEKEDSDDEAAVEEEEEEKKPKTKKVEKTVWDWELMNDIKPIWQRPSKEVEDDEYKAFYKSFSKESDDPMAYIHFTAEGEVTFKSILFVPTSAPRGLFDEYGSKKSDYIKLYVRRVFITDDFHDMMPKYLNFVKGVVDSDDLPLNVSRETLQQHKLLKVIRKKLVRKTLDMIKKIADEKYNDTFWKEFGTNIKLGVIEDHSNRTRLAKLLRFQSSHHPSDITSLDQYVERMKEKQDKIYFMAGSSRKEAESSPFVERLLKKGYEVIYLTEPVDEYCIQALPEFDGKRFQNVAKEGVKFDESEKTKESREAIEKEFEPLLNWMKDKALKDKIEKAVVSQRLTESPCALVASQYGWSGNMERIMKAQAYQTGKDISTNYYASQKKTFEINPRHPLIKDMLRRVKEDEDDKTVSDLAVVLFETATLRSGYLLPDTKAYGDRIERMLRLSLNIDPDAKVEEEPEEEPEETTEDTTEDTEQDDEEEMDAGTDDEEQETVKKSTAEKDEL
stoichiometry N [1],binding result [2],binding result [3],binding result [4],binding result [5],Binder
2,,,,,"Myocilin olfactomedin domain, residues 228-504, Q99972 228-504 (domain or fragment) LKESPSGYLRSGEGDTGCGELVWVGEPLTLRTAETITGKYGVWMRDPKPTYPYTQETTWRIDTVGTDVRQVFEYDLISQFMQGYPSKVHILPRPLESTGAVVYSGSLYFQGAESRTVIRYELNTETVKAEKEIPGAGYHGQFPYSWGGYTDIDLAVDEAGLWVIYSTDEAKGAIVLSKLNPENLELEQTWETNIRKQSVANAFIICGTLYTVSSYTSADATVNFAYDTGTGISKTLTIPFKNRYKYSSMIDYNPLEKKLFAWDNLNMVTYDIKLSKM"
,binds,binds,binds,binds,"Myocilin olfactomedin domain, residues 228-504 (domain or fragment, human, UniProt Q99972 228-504, looked up, Myocilin C-terminal olfactomedin (OLF) domain, Homo sapiens, residues 228-504; The results call S233 the N-terminal residue of the OLF construct, though the methods give residues 228-504 and a cross-link at K229 is reported; also called wild-type OLF) LKESPSGYLRSGEGDTGCGELVWVGEPLTLRTAETITGKYGVWMRDPKPTYPYTQETTWRIDTVGTDVRQVFEYDLISQFMQGYPSKVHILPRPLESTGAVVYSGSLYFQGAESRTVIRYELNTETVKAEKEIPGAGYHGQFPYSWGGYTDIDLAVDEAGLWVIYSTDEAKGAIVLSKLNPENLELEQTWETNIRKQSVANAFIICGTLYTVSSYTSADATVNFAYDTGTGISKTLTIPFKNRYKYSSMIDYNPLEKKLFAWDNLNMVTYDIKLSKM"
,binds,,,,"Dansylated myocilin olfactomedin domain (domain or fragment, human, UniProt Q99972 228-504, looked up, dansyl (~2 dansyl modifications per OLFd by MS), sites not stated, Myocilin C-terminal olfactomedin (OLF) domain, Homo sapiens, residues 228-504; Same construct as m7, chemically labelled; also called OLFd; dansyl-modified OLF) LKESPSGYLRSGEGDTGCGELVWVGEPLTLRTAETITGKYGVWMRDPKPTYPYTQETTWRIDTVGTDVRQVFEYDLISQFMQGYPSKVHILPRPLESTGAVVYSGSLYFQGAESRTVIRYELNTETVKAEKEIPGAGYHGQFPYSWGGYTDIDLAVDEAGLWVIYSTDEAKGAIVLSKLNPENLELEQTWETNIRKQSVANAFIICGTLYTVSSYTSADATVNFAYDTGTGISKTLTIPFKNRYKYSSMIDYNPLEKKLFAWDNLNMVTYDIKLSKM"
